Assay results: US20060257938A1, “Method of screening for drugs that block ligand binding to a lipid binding protein” (priority 2005, published 2006)

Experiments:
Assay type in all cases: binding
[1] = Probe fluorescence ratio response to oleic acid relative to ADIFAB2; conditions: Table 5
In short: (§1)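 Fluorescently labeled rat intestinal FABP variants were read at two emission wavelengths, near the unbound maximum (about 420 to 480 nm) and the FFA-bound maximum (about 495 to 580 nm). R = Fλ1/Fλ2 after subtracting probe-free intensity; ΔR = R+agent − R0, normalized to ADIFAB2 (rI-FABP-L72A).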

[2] = Probe fluorescence ratio response to linoleic acid relative to ADIFAB2; conditions: Table 5
In short: as §1

[3] = Probe fluorescence ratio response to palmitic acid relative to ADIFAB2; conditions: Table 5
In short: as §1

[4] = Probe fluorescence ratio response to linolenic acid relative to ADIFAB2; conditions: Table 5
In short: as §1

[5] = Probe fluorescence ratio response to arachidonic acid relative to ADIFAB2; conditions: Table 5; Arachidonic acid
In short: as §1

[6] = Probe fluorescence ratio response to stearic acid relative to ADIFAB2; conditions: Table 5
In short: as §1

[7] = Probe fluorescence ratio response to palmitoleic acid relative to ADIFAB2; conditions: Table 5
In short: as §1

B1: L2P4C5: FABP probe, substitutions M18I G31Y vs SEQ ID NO: 2 (protein, listed as Rattus norvegicus)
chain: AFDGTWKVDRNENYEKFIEKMGINVVKRKLYAHDNLKLTITQEGNKFTVKESSNFRNIDVVFELGVDFAYSLADGTELTGTWTMEGNKLVGKFKRVDNGKELIAVREISGNELIQTYTYEGVEAKRIFKKE
modifications: PEPTIDE (1)...(131) wild-type rat intestinal fatty acid binding protein
With B1 the “ΔR/DRAΔ2 OA” value [1] was 2.1, the “ΔR/DRAΔ2 LA” value [2] was 2.8 and the “ΔR/DRAΔ2 PA” value [3] was 1.8. For the same molecule, the “ΔR/DRAΔ2 LNA” value [4] was 2.8, the “ΔR/DRAΔ2 AA” value [5] was 2.2 and the “ΔR/DRAΔ2 SA” value [6] was 1.0. For the same molecule, the “ΔR/DRAΔ2 POA” value [7] was 2.6.

B2: L2P22H10: FABP probe, substitutions M18I F55G A73M vs SEQ ID NO: 2 (protein, listed as Rattus norvegicus)
chain: AFDGTWKVDRNENYEKFIEKMGINVVKRKLGAHDNLKLTITQEGNKFTVKESSNGRNIDVVFELGVDFAYSLMDGTELTGTWTMEGNKLVGKFKRVDNGKELIAVREISGNELIQTYTYEGVEAKRIFKKE
modifications: PEPTIDE (1)...(131) wild-type rat intestinal fatty acid binding protein
With B2 the “ΔR/DRAΔ2 OA” value [1] was 0.6, the “ΔR/DRAΔ2 LA” value [2] was 1.1 and the “ΔR/DRAΔ2 PA” value [3] was 1.1. For the same molecule, the “ΔR/DRAΔ2 LNA” value [4] was 1.3, the “ΔR/DRAΔ2 AA” value [5] was 0.9 and the “ΔR/DRAΔ2 SA” value [6] was 0.4. For the same molecule, the “ΔR/DRAΔ2 POA” value [7] was 1.2.

B3: L2P7F4: FABP probe, substitutions M18V G31V A73I vs SEQ ID NO: 2 (protein, listed as Rattus norvegicus)
chain: AFDGTWKVDRNENYEKFVEKMGINVVKRKLVAHDNLKLTITQEGNKFTVKESSNFRNIDVVFELGVDFAYSLIDGTELTGTWTMEGNKLVGKFKRVDNGKELIAVREISGNELIQTYTYEGVEAKRIFKKE
modifications: PEPTIDE (1)...(131) wild-type rat intestinal fatty acid binding protein
With B3 the “ΔR/DRAΔ2 OA” value [1] was 0.6, the “ΔR/DRAΔ2 LA” value [2] was 1.1 and the “ΔR/DRAΔ2 PA” value [3] was 1.3. The “ΔR/DRAΔ2 LNA” value [4] was 1.5, the “ΔR/DRAΔ2 AA” value [5] was 0.8 and the “ΔR/DRAΔ2 SA” value [6] was 0.3. For the same molecule, the “ΔR/DRAΔ2 POA” value [7] was 1.3.

B4: L2P21G3: FABP probe, substitutions M18I G31M F55M vs SEQ ID NO: 2 (protein, listed as Rattus norvegicus)
chain: AFDGTWKVDRNENYEKFIEKMGINVVKRKLMAHDNLKLTITQEGNKFTVKESSNMRNIDVVFELGVDFAYSLADGTELTGTWTMEGNKLVGKFKRVDNGKELIAVREISGNELIQTYTYEGVEAKRIFKKE
modifications: PEPTIDE (1)...(131) wild-type rat intestinal fatty acid binding protein
For B4, the “ΔR/DRAΔ2 OA” value [1] was 0.6, the “ΔR/DRAΔ2 LA” value [2] was 1.1 and the “ΔR/DRAΔ2 PA” value [3] was 1.1. For the same molecule, the “ΔR/DRAΔ2 LNA” value [4] was 1.4, the “ΔR/DRAΔ2 AA” value [5] was 1.0 and the “ΔR/DRAΔ2 SA” value [6] was 0.3. For the same molecule, the “ΔR/DRAΔ2 POA” value [7] was 1.4.

B5: L2P9E12: FABP probe, substitutions M18L F55L A73I vs SEQ ID NO: 2 (protein, listed as Rattus norvegicus)
chain: AFDGTWKVDRNENYEKFLEKMGINVVKRKLGAHDNLKLTITQEGNKFTVKESSNLRNIDVVFELGVDFAYSLIDGTELTGTWTMEGNKLVGKFKRVDNGKELIAVREISGNELIQTYTYEGVEAKRIFKKE
modifications: PEPTIDE (1)...(131) wild-type rat intestinal fatty acid binding protein
For B5, the “ΔR/DRAΔ2 OA” value [1] was 0.6, the “ΔR/DRAΔ2 LA” value [2] was 0.7 and the “ΔR/DRAΔ2 PA” value [3] was 1.1. The “ΔR/DRAΔ2 LNA” value [4] was 0.9, the “ΔR/DRAΔ2 AA” value [5] was 0.6 and the “ΔR/DRAΔ2 SA” value [6] was 0.4. For the same molecule, the “ΔR/DRAΔ2 POA” value [7] was 0.8.

B6: L2P8B8: FABP probe, substitution A73F vs SEQ ID NO: 2 (protein, listed as Rattus norvegicus)
chain: AFDGTWKVDRNENYEKFMEKMGINVVKRKLGAHDNLKLTITQEGNKFTVKESSNFRNIDVVFELGVDFAYSLFDGTELTGTWTMEGNKLVGKFKRVDNGKELIAVREISGNELIQTYTYEGVEAKRIFKKE
modifications: PEPTIDE (1)...(131) wild-type rat intestinal fatty acid binding protein
With B6 the “ΔR/DRAΔ2 OA” value [1] was 0.6, the “ΔR/DRAΔ2 LA” value [2] was 1.2 and the “ΔR/DRAΔ2 PA” value [3] was 1.1. For the same molecule, the “ΔR/DRAΔ2 LNA” value [4] was 1.8, the “ΔR/DRAΔ2 AA” value [5] was 1.1 and the “ΔR/DRAΔ2 SA” value [6] was 0.4. For the same molecule, the “ΔR/DRAΔ2 POA” value [7] was 2.4.

B7: L2P23G7: FABP probe, substitutions M18V G31F F55L vs SEQ ID NO: 2 (protein, listed as Rattus norvegicus)
chain: AFDGTWKVDRNENYEKFVEKMGINVVKRKLFAHDNLKLTITQEGNKFTVKESSNLRNIDVVFELGVDFAYSLADGTELTGTWTMEGNKLVGKFKRVDNGKELIAVREISGNELIQTYTYEGVEAKRIFKKE
modifications: PEPTIDE (1)...(131) wild-type rat intestinal fatty acid binding protein
For B7, the “ΔR/DRAΔ2 OA” value [1] was 0.6, the “ΔR/DRAΔ2 LA” value [2] was 1.0 and the “ΔR/DRAΔ2 PA” value [3] was 1.0. The “ΔR/DRAΔ2 LNA” value [4] was 1.2, the “ΔR/DRAΔ2 AA” value [5] was 0.9 and the “ΔR/DRAΔ2 SA” value [6] was 0.4. For the same molecule, the “ΔR/DRAΔ2 POA” value [7] was 1.4.

B8: L2P8F11: FABP probe, substitution A73I vs SEQ ID NO: 2 (protein, listed as Rattus norvegicus)
chain: AFDGTWKVDRNENYEKFMEKMGINVVKRKLGAHDNLKLTITQEGNKFTVKESSNFRNIDVVFELGVDFAYSLIDGTELTGTWTMEGNKLVGKFKRVDNGKELIAVREISGNELIQTYTYEGVEAKRIFKKE
modifications: PEPTIDE (1)...(131) wild-type rat intestinal fatty acid binding protein
For B8, the “ΔR/DRAΔ2 OA” value [1] was 0.0, the “ΔR/DRAΔ2 LA” value [2] was 0.0 and the “ΔR/DRAΔ2 PA” value [3] was 0.0. The “ΔR/DRAΔ2 LNA” value [4] was 0.1, the “ΔR/DRAΔ2 AA” value [5] was 0.4 and the “ΔR/DRAΔ2 SA” value [6] was 0.3. The “ΔR/DRAΔ2 POA” value [7] was 0.1.

B9: L2P1E6: FABP probe, substitutions M18L A73L vs SEQ ID NO: 2 (protein, listed as Rattus norvegicus)
chain: AFDGTWKVDRNENYEKFLEKMGINVVKRKLGAHDNLKLTITQEGNKFTVKESSNFRNIDVVFELGVDFAYSLLDGTELTGTWTMEGNKLVGKFKRVDNGKELIAVREISGNELIQTYTYEGVEAKRIFKKE
modifications: PEPTIDE (1)...(131) wild-type rat intestinal fatty acid binding protein
In the case of B9, the “ΔR/DRAΔ2 OA” value [1] is reported as 0.1, the “ΔR/DRAΔ2 LA” value [2] is reported as 0.1 and the “ΔR/DRAΔ2 PA” value [3] is reported as 0.0. For the same molecule, the “ΔR/DRAΔ2 LNA” value [4] was 0.1, the “ΔR/DRAΔ2 AA” value [5] was 0.4 and the “ΔR/DRAΔ2 SA” value [6] was 0.2. For the same molecule, the “ΔR/DRAΔ2 POA” value [7] was 0.1.

B10: L2P16A3: FABP probe, substitutions M18I G31L A73G vs SEQ ID NO: 2 (protein, listed as Rattus norvegicus)
chain: AFDGTWKVDRNENYEKFIEKMGINVVKRKLLAHDNLKLTITQEGNKFTVKESSNFRNIDVVFELGVDFAYSLGDGTELTGTWTMEGNKLVGKFKRVDNGKELIAVREISGNELIQTYTYEGVEAKRIFKKE
modifications: PEPTIDE (1)...(131) wild-type rat intestinal fatty acid binding protein
With B10 the “ΔR/DRAΔ2 OA” value [1] was 0.6, the “ΔR/DRAΔ2 LA” value [2] was 1.1 and the “ΔR/DRAΔ2 PA” value [3] was 1.1. The “ΔR/DRAΔ2 LNA” value [4] was 1.5, the “ΔR/DRAΔ2 AA” value [5] was 1.0 and the “ΔR/DRAΔ2 SA” value [6] was 0.3. The “ΔR/DRAΔ2 POA” value [7] was 1.4.

B11: L2P12G9: FABP probe, substitutions M18L A73V vs SEQ ID NO: 2 (protein, listed as Rattus norvegicus)
chain: AFDGTWKVDRNENYEKFLEKMGINVVKRKLGAHDNLKLTITQEGNKFTVKESSNFRNIDVVFELGVDFAYSLVDGTELTGTWTMEGNKLVGKFKRVDNGKELIAVREISGNELIQTYTYEGVEAKRIFKKE
modifications: PEPTIDE (1)...(131) wild-type rat intestinal fatty acid binding protein
With B11 the “ΔR/DRAΔ2 OA” value [1] was 0.0, the “ΔR/DRAΔ2 LA” value [2] was −0.1 and the “ΔR/DRAΔ2 PA” value [3] was 0.0. For the same molecule, the “ΔR/DRAΔ2 LNA” value [4] was 0.0, the “ΔR/DRAΔ2 AA” value [5] was 0.5 and the “ΔR/DRAΔ2 SA” value [6] was 0.4. The “ΔR/DRAΔ2 POA” value [7] was 0.0.

B12: L2P22E6: FABP probe, substitutions M18V G31A F55I A73W vs SEQ ID NO: 2 (protein, listed as Rattus norvegicus)
chain: AFDGTWKVDRNENYEKFVEKMGINVVKRKLAAHDNLKLTITQEGNKFTVKESSNIRNIDVVFELGVDFAYSLWDGTELTGTWTMEGNKLVGKFKRVDNGKELIAVREISGNELIQTYTYEGVEAKRIFKKE
modifications: PEPTIDE (1)...(131) wild-type rat intestinal fatty acid binding protein
With B12 the “ΔR/DRAΔ2 OA” value [1] was 0.8, the “ΔR/DRAΔ2 LA” value [2] was 1.3 and the “ΔR/DRAΔ2 PA” value [3] was 1.3. For the same molecule, the “ΔR/DRAΔ2 LNA” value [4] was 1.6, the “ΔR/DRAΔ2 AA” value [5] was 1.0 and the “ΔR/DRAΔ2 SA” value [6] was 0.4. The “ΔR/DRAΔ2 POA” value [7] was 1.6.

B13: L2P18H12: FABP probe, substitutions M18I G31V A73G vs SEQ ID NO: 2 (protein, listed as Rattus norvegicus)
chain: AFDGTWKVDRNENYEKFIEKMGINVVKRKLVAHDNLKLTITQEGNKFTVKESSNFRNIDVVFELGVDFAYSLGDGTELTGTWTMEGNKLVGKFKRVDNGKELIAVREISGNELIQTYTYEGVEAKRIFKKE
modifications: PEPTIDE (1)...(131) wild-type rat intestinal fatty acid binding protein
In the case of B13, the “ΔR/DRAΔ2 OA” value [1] is reported as 1.0, the “ΔR/DRAΔ2 LA” value [2] is reported as 1.7 and the “ΔR/DRAΔ2 PA” value [3] is reported as 1.6. The “ΔR/DRAΔ2 LNA” value [4] was 1.9, the “ΔR/DRAΔ2 AA” value [5] was 1.3 and the “ΔR/DRAΔ2 SA” value [6] was 0.5. For the same molecule, the “ΔR/DRAΔ2 POA” value [7] was 2.1.
